Assay [1] concerns the target N2 peptide (N2 region of non-muscle myosin II heavy chain) (Mus musculus, UniProt Q61879). The assay can be described thus: binding of hybridoma antibodies to the N2 peptide in vitro. The method, then:
(§1) A panel of mouse hybridomas were prepared to identify the N2 region of non-muscle myosin II heavy chain. Thus, mice were immunized with the N2 peptide (Ac-LMKNMDPLNDNV (SEQ ID NO: 33)) coupled to a carrier protein (KLH). This region (N2) is highly conserved and identical in mouse and man. […] 12A6 is a IgG2b isotype. Its VH most closely matches the germ line gene 3609.11.169 sequence paired with DH: DSP2/DFL16.1 and its light chain is a V kappa 8-27 with JK1. 21G6 is an IgG1 isotype with its VH matching J558.35; DH: DSP2.6/DSP2.4/DSP2.3 and JH: JH3. Its light chain is V kappa hf24 and JK4.

For another assay, the system named is N2 self-peptide. As to the kind of experiment: binding of anti-N2 antibody in vivo in heart after LAD occlusion and reperfusion (confocal microscopy). Also on record: species or system mouse. Conditions: B6 mice. The method, then:
Specificity of the anti-N2 antibody. B6 mice were injected i.v. with fluorescently-labeled anti-N2 antibody (12A6) and anti-CD31 antibody prior to 60 min LAD occlusion and 30 min reperfusion. Following treatment, hearts were collected, fixed, and analyzed by confocal microscopy. The area at risk (left ventricle) was compared with the non-risk area (right ventricle). Quantification of the individual antibody staining as well as the merged images both in the area at risk and non-risk area is shown in FIG. 5.

In another assay the test system is B6 mice. The assay can be described thus: murine myocardial infarction model (1 h LAD occlusion, 24 h reperfusion). Conditions: pretreatment with 100 ugs of Fab'2 fragment (Fc removed). The format is in vivo, mouse. The protocol: as §1
B6 mice were subjected to 1 h LAD occlusion followed by 24 h reperfusion. […] Following reperfusion, both serum troponin-I levels (A) and mouse IgM deposition (B) were analyzed and statistical significance for each was evaluated by Student's t test (FIG. 3).
[…] Serum troponin-I levels were measured after 24 h reperfusion.

B1: 21G6: murine anti-N2 IgG1 produced by hybridoma PTA-9393; VH SEQ ID NO: 14, VL SEQ ID NO: 20 (antibody, listed as Mus sp., V domains shown)
VH: QVQLQESGAELVKPGASVKLSCKASGYTFTSYYMYWVKQRPGQGLEWIGGINPSNGGTNFNEKFKSKATLTVDKSSSTAYMQLSSLTSEDSAVYYCTRWGYDREWFAYWGQGTLVTVSA
VL: DIVMTQAAPSVPVTPGESVSISCRSSKSLLHSNGNTYLYWFLQRPGQSPQVLIYRMSNLASGVPDRFSGSGSGTAFTLRISRVEAEDVGVYYCMQHLEYPFTFGSGTKLEIKR
Consider B1, for which the “binding to the N2 peptide in vitro” value in assay [1] is on record as “bind the N2 peptide”. For the same molecule, in the assay with N2 self-peptide, the “binding to the N2 self-peptide in vivo” value is listed as “bind the N2 peptide”. Moreover, the ischemia reperfusion injury result in the assay on B6 mice is “blocks ischemia reperfusion injury”.

The record behind these values is US9067983B2, “Anti-inflammatory antibodies and uses therefor” (DecImmune Therapeutics, Inc., priority 2009, dated 2015).
